T1: Abp1 SH3 (ABP1_YEAST), P15891
T1 chain: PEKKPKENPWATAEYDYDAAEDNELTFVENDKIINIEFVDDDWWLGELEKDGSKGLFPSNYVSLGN

B1: YGR109W-B 421-433 (peptide)
chain: VLNTRESPDSLKP
B2: YFL036W 250-262 (peptide)
chain: VITPSQLPNSVRP
B3: YDR107C 200-212 (peptide)
chain: VILDARLPKNVKP
B4: YNR011C 599-611 (peptide)
chain: VTDLIKFPLMDKP
B5: YMR250W 428-440 (peptide)
chain: VKDYWEHPQAYKP
B6: YAR007C 254-267 (peptide)
chain: VYYVSKAKLQPAKP
B7: YPL019C 812-824 (peptide)
chain: VSSQPSLPRTLKP
B8: YIL150C 263-276 (peptide)
chain: VIAILNPEVLPWRP
B9: YFL001W 315-328 (peptide)
chain: VLRLTDIEKTPQRP
B10: YLR381W 153-165 (peptide)
chain: VIWQATTPVDVKP
B11: YKL109W 62-75 (peptide)
chain: VVRTSKHWVLPPRP
B12: YMR219W 1122-1135 (peptide)
chain: VSSSEIESVEPLKP
B13: YHR091C 181-193 (peptide)
chain: VVVEFSSPNIAKP
B14: YKL032C 424-437 (peptide)
chain: VRDAYEKTLPPKRP
B15: YBR235W 2-14 (peptide)
chain: VSRFYQIPGTHRP
B16: YGL137W 187-199 (peptide)
chain: VNYVDYYPLPDKP
B17: YGL165C 142-155 (peptide)
chain: VVVMSTSDERPFRP
B18: YPR175W 10-22 (peptide)
chain: VLPVKIQPPLLRP
B19: YNL330C 29-42 (peptide)
chain: VGNYAYGAGHPMKP
B20: YJR033C 294-307 (peptide)
chain: VLALNNLSQDPPKP
B21: YDL140C 556-568 (peptide)
chain: WDGVIPTPAIIKP
B22: YHR070W 474-487 (peptide)
chain: VSLHLVRKVAPTKP
B23: YOR129C 465-477 (peptide)
chain: VFYENNSPEKEKP
B24: YNR054C 115-127 (peptide)
chain: VVYFSSIPPYMKP
B25: YDR321W 235-248 (peptide)
chain: VNNEIHYYYPPVKP
B26: YHR048W 242-254 (peptide)
chain: VMIIFTIPETYKP
B27: YER035W 35-47 (peptide)
chain: VPPTQSLPNGKKP
B28: YJR105W 266-279 (peptide)
chain: VVSSKGTSTYPVKP
B29: YDR258C 83-96 (peptide)
chain: VQMRMDPNQQPEKP
B30: YGL076C 86-99 (peptide)
chain: VVRIKGINKIPPKP
B31: YGR188C 415-428 (peptide)
chain: VQVQTTTSILPLKP
B32: YPR155C 202-215 (peptide)
chain: VIRNFRFVGLPKKP
B33: YHR194W 300-312 (peptide)
chain: VLSTLYQPNGFRP
B34: YMR092C 479-491 (peptide)
chain: VSFDLKTPLRAKP
B35: YHR080C 52-64 (peptide)
chain: VGGNPDIPSLLKP
B36: YDL140C 507-519 (peptide)
chain: VPLQIVSPQSNKP
B37: YGL017W 311-324 (peptide)
chain: VLDVSHSKYIPLKP
B38: YGR188C 429-442 (peptide)
chain: VVDGNLAHETPVKP
B39: YDR223W 11-23 (peptide)
chain: VRRKPHSPNKKKP
B40: YNL138W 345-358 (peptide)
chain: VSSTGSKSGPPPRP
B41: YDR341C 145-157 (peptide)
chain: VIIEFSSPNIAKP
B42: YGL194C 36-49 (peptide)
chain: VSHYHYGVKHPMKP
B43: YDR363W 93-106 (peptide)
chain: VNIEDITEPKPDKP
B44: YOR324C 73-85 (peptide)
chain: VIAVNDNPVVPRP
B45: YJL201W 369-381 (peptide)
chain: VSSSSTIPVLPKP
B46: YNL052W 72-85 (peptide)
chain: VWYISYGEWGPRRP
B47: YER167W 235-247 (peptide)
chain: VPKSTHDPSLAKP
B48: YJR043C 299-312 (peptide)
chain: VTKRPATSTPPRKP
B49: YOL042W 270-283 (peptide)
chain: VSHGDLNLINPMRP
B50: YDR177W 53-66 (peptide)
chain: VVDIEVPMEYPFKP
B51: YMR208W 259-271 (peptide)
chain: VLVTEKFPEVMKP
B52: YIL106W 99-111 (peptide)
chain: VTDFNYTPSHQKP
B53: YBL012C 87-99 (peptide)
chain: WSRHFFLPRSKRP
B54: YMR251W 349-361 (peptide)
chain: VNPIGITPLGPKP

For this test, the target named is T1, Abp1 SH3 (ABP1_YEAST), P15891. Briefly: SPOT array.
B1 gave a normalised SPOT signal, Boehringer light units (BLU); mean over the file's lines of this peptide of 103.

As to B2, the normalised SPOT signal, Boehringer light units (BLU); mean over the file's lines of this peptide came out at 214. With B3 the figure was 99.6. With B4 the figure was 88.1; with B5, 12.6; with B6, 135. With B7 the figure was 214. As to B8, the normalised SPOT signal, Boehringer light units (BLU); mean over the file's lines of this peptide came out at 78.9. Regarding B9, the normalised SPOT signal, Boehringer light units (BLU); mean over the file's lines of this peptide is 122. In turn, B10 registered a normalised SPOT signal, Boehringer light units (BLU); mean over the file's lines of this peptide of 57.5.

Molecule B11 showed a normalised SPOT signal, Boehringer light units (BLU); mean over the file's lines of this peptide of 2600. The same measure for B12: 56.1; for B13: 86.6; for B14: 416. With B15 the figure was 326; with B16, 40.6; with B17, 146.

As for B18, the normalised SPOT signal, Boehringer light units (BLU); mean over the file's lines of this peptide was 149. With B19 the figure was 97.4; with B20, 105. With B21 the figure was 78. The same measure for B22: 5240. Turning to B23, the normalised SPOT signal, Boehringer light units (BLU); mean over the file's lines of this peptide came to 118. The same measure for B24: 93.8; for B25: 116; for B26: 96. With B27 the figure was 79.3. With B28 the figure was 112. In turn, B29 showed a normalised SPOT signal, Boehringer light units (BLU); mean over the file's lines of this peptide of 247. The same measure for B30: 615; for B31: 69.6; for B32: 145. In the case of B33, the normalised SPOT signal, Boehringer light units (BLU); mean over the file's lines of this peptide is 54.5. Take B34: the normalised SPOT signal, Boehringer light units (BLU); mean over the file's lines of this peptide is 461. The same measure for B35: 87.4; for B36: 20.8; for B37: 51.1. B38 returned a normalised SPOT signal, Boehringer light units (BLU); mean over the file's lines of this peptide of 93. Consider B39, for which the normalised SPOT signal, Boehringer light units (BLU); mean over the file's lines of this peptide worked out at 98. B40 had a normalised SPOT signal, Boehringer light units (BLU); mean over the file's lines of this peptide of 793. The same measure for B41: 38.1; for B42: 39.9. B43 had a normalised SPOT signal, Boehringer light units (BLU); mean over the file's lines of this peptide of 103.

As for B44, the normalised SPOT signal, Boehringer light units (BLU); mean over the file's lines of this peptide was 140. With B45 the figure was 77.3; with B46, 29.6. With B47 the figure was 82.5. The same measure for B48: 812. On to B49, for which the normalised SPOT signal, Boehringer light units (BLU); mean over the file's lines of this peptide came out at 107. B50: the normalised SPOT signal, Boehringer light units (BLU); mean over the file's lines of this peptide came to 40.3. In turn, B51 displayed a normalised SPOT signal, Boehringer light units (BLU); mean over the file's lines of this peptide of 87.4. With B52 the figure was 79.

Turning to B53, the normalised SPOT signal, Boehringer light units (BLU); mean over the file's lines of this peptide is 324. Take B54: the normalised SPOT signal, Boehringer light units (BLU); mean over the file's lines of this peptide is 62.5.

The values are drawn from paper PMC314469, “Protein Interaction Networks by Proteome Peptide Scanning” (PLoS Biology, 2004).
